± gives the standard deviation.
Test: protein stability index of a GFP-peptide fusion (GPS, HEK-293T) (PSI 1-6); higher = more stable
[1] = treatment: DMSO, c terminus: a fixed tail appended
[2] = treatment: MLN4924 1 uM, 8 h, c terminus: a fixed tail appended
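Note: 24-mer peptide tiles fused after GFP, lentivirally expressed, FACS-sorted into six equal bins by GFP/DsRed ratio, decoded by Illumina sequencing, PSI is the read-weighted mean bin number.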

Row | Sequence | protein stability index [1] | protein stability index [2] | protein stability index (treatment: DMSO, c terminus: native) | protein stability index (treatment: MLN4924 1 uM, 8 h, c terminus: native)
1 | CVLADRLDCADALLKAGADVNKTD [INVS] | 4.4 ± 0.48 | 4.17 ± 0.42 | – | –
2 | DAKDELEERLERCMSIVTSMTAGV [INTS3] | 4.13 ± 0.3 | 4.09 ± 0.33 | – | –
3 | DCCQVSAPNRFFQKLNVFKNFIGL [NLN] | 2.09 ± 0.51 | 2.17 ± 0.21 | – | –
4 | DDATCRLYDLRADREVAIYSKESI [GNB5] | 3.51 ± 0.24 | 3.4 ± 0.17 | – | –
5 | DDEGWLHSGDLGQLDGLGFLYVTG [ACSBG2] | 2.66 ± 0.33 | 2.54 ± 0.42 | – | –
6 | DDGSQDPEVLDRESRDRPSCAPSA [PWWP2B] | 5.43 ± 0.17 | 5.21 ± 0.13 | – | –
7 | DDKTDKRIFTFICKDSESNKHLCY [GULP1] | 2.47 ± 0.45 | 2.51 ± 0.26 | – | –
8 | DEIENLLDSDHRELIGDYSKAFLL [CDC25B] | 3.55 ± 0.36 | 3.41 ± 0.53 | – | –
9 | DERVLENVEHYQELKKMVQQSDLG [ALG2] | 4.95 ± 0.38 | 4.8 ± 0.28 | – | –
10 | DESQISAEEAEDHGRIPDPDDFVP [FAM189A2] | 5.6 ± 0.2 | 5.61 ± 0.15 | – | –
11 | DETIGFEDILNDPSQSEVMGEPHL [POMP] | 5.5 ± 0.15 | 5.46 ± 0.086 | – | –
12 | DFGACDGGLLTGNEKITMQNLNDR [KRT13] | 4.57 ± 0.33 | 4.53 ± 0.37 | – | –
13 | DGIDRWIKEIDEHAPGVPKILVGN [RAB40B] | 3.68 ± 0.28 | 3.85 ± 0.33 | – | –
14 | DGNLCLHVPNPPSGISFPSVVDHP [HESX1] | 3.73 ± 0.5 | 3.78 ± 0.15 | – | –
15 | DGVITASEDRTIRVWLKRDSGQYW [WDFY1] | 2.65 ± 0.65 | 2.76 ± 0.18 | – | –
16 | DHKPKLCRLAKGENGYGFHLNAIR [PDZK1] | 2.25 ± 0.24 | 2.36 ± 0.56 | – | –
17 | DICLAQLEELGTLNVFQTVSRMRT [PTPN9] | 2.97 ± 0.22 | 2.79 ± 0.33 | – | –
18 | DKDRRFVFSYFLATDMISIFEPPV [EFHC1] | 2.38 ± 0.47 | 2.72 ± 0.61 | – | –
19 | DKLSQKSSSSKLSRSPLKIVKKPK [EPB41L3] | 4.3 ± 0.66 | 4.79 ± 0.23 | – | –
20 | DKVLRFAQQIRLHHFNSSHLEIDD [MYORG] | 2.93 ± 0.17 | 2.95 ± 0.23 | – | –
21 | DLKTLSDDIKESLESEGKNSKKEE [ATE1] | 5.31 ± 0.54 | 5.32 ± 0.31 | – | –
22 | DPELKNLFDMCGISEAQLKDRETS [WASL] | 4.72 ± 0.063 | 4.68 ± 0.21 | – | –
23 | DPKKLLTQYFVQENYLEYRQVPGS [MAGEA6] | 3.12 ± 0.1 | 3 ± 0.39 | – | –

Row | Sequence | protein stability index [1] | protein stability index [2] | protein stability index (treatment: DMSO, c terminus: native) | protein stability index (treatment: MLN4924 1 uM, 8 h, c terminus: native)
24 | DRDSIWKCLKFLGSRHPTLVLPLV [INTS4] | 2.15 ± 0.24 | 2.15 ± 0.22 | – | –
25 | DSFDKFDFCEPSFVTGNCLEISPD [PCMTD2] | 4.36 ± 0.12 | 4.66 ± 0.46 | – | –
26 | DSISLHQPCNPPAPAGDKGFQPPS [DMRTC1] | 5 ± 0.27 | 5 ± 0.16 | – | –
27 | DTDVDMEGLRRRRGREAGPPQPMV [PBXIP1] | 4.75 ± 0.36 | 5.04 ± 0.11 | – | –
28 | DTREEKRFLGEGHHRVQENQMDKA [CHGB] | 5.25 ± 0.13 | 5.16 ± 0.25 | – | –
29 | DVKKEKLSPDIMKDAYVQKLVKVC [TENT5D] | 2.94 ± 0.52 | 3.1 ± 0.076 | – | –
30 | DVLSCEYYSPILDQWTPIAAMLRG [KLHL13] | 2.2 ± 0.46 | 2.36 ± 0.23 | – | –
31 | DVRLDREHRVAGIFPRLSFKDKST [CLPTM1] | 3.79 ± 0.063 | 4 ± 0.089 | – | –
32 | DYEAGQHMEDPRRAGKMLMTLPLL [ESRRG] | 3.56 ± 0.29 | 3.52 ± 0.15 | – | –
33 | EADENENITVVKGIRLSENVIDRM [CHCHD3] | 4.75 ± 0.17 | 4.7 ± 0.11 | – | –
34 | EAGAPGEEDIQGPTKADTEKWAEG [CHGB] | 5.64 ± 0.29 | 5.59 ± 0.32 | – | –
35 | EAGGKQKAVEEELDAEDRPAWNSK [SLC6A17] | 5.62 ± 0.16 | 5.57 ± 0.15 | – | –
36 | EAGSAGHVEVARLLLENGAGINTH [ANKRD17] | 4.11 ± 0.36 | 4.25 ± 0.26 | – | –
37 | EAIKGLNGQKPLGAAEPITVKFAN [ELAVL3] | 3.94 ± 0.22 | 4.06 ± 0.28 | – | –
38 | EAQISDPFAPEPTPPTTTAEIATA [SNAP91] | 5.42 ± 0.28 | 5.46 ± 0.13 | – | –
39 | EARSLEHTLPVNRETLKRKVSGNR [ESR2] | 4.95 ± 0.27 | 5.16 ± 0.2 | – | –
40 | EAVSTLLGAVAVFAVGYIKISWST [SLC19A2] | 2.82 ± 0.21 | 2.98 ± 0.73 | – | –
41 | EDEKQRLQNEVRQLTEKLARVNEN [SSNA1] | 4.99 ± 0.35 | 5.17 ± 0.24 | – | –
42 | EDGFGEHPFYHCLVAEVPKEHWTP [SAT1] | 3.05 ± 0.22 | 3.12 ± 0.27 | – | –
43 | EDGIHTLTCALMLLNTDLHGHNIG [PSD2] | 2.78 ± 0.5 | 2.75 ± 0.36 | – | –
44 | EDKTFGLKNKKGAKQQKFIKAVTH [ZC3H15] | 4.26 ± 0.3 | 4.39 ± 0.23 | – | –
45 | EDSNWEKSPDNEDSGDSKDIRLTL [GOLPH3L] | 5.37 ± 0.16 | 5.37 ± 0.12 | – | –
46 | EDTHQSPEPEDEPGGPGAMTESLE [RSPH3] | 5.43 ± 0.38 | 5.64 ± 0.14 | – | –

Row | Sequence | protein stability index [1] | protein stability index [2] | protein stability index (treatment: DMSO, c terminus: native) | protein stability index (treatment: MLN4924 1 uM, 8 h, c terminus: native)
47 | EEEEAAMYEEEMEREEITTKKRKL [FAM50A] | 5.66 ± 0.32 | 5.38 ± 0.34 | – | –
48 | EEEMRSHYVAQTGILWLLMNNCFL [GAGE1] | 3.15 ± 0.36 | 3.2 ± 0.35 | – | –
49 | EEKEAWYREESDSLGQDLRRLRQE [DAPK3] | 5.28 ± 0.31 | 5.35 ± 0.17 | – | –
50 | EENELTSLAEDLLGLTDPNGGLA [TRADD] | – | – | 5.14 ± 0.19 | 5.06 ± 0.43
51 | EESGSSSASEEEDTKPKPTKRKRK [INTS3] | 5.55 ± 0.17 | 5.57 ± 0.29 | – | –
52 | EGDTVSQELLDTVLVNLVPAHKNL [PDS5B] | 3.65 ± 0.24 | 3.94 ± 0.34 | – | –
53 | EGIRQTEYTLTGLKFDMKYMNFRV [FSD1] | 2.67 ± 0.54 | 2.56 ± 0.52 | – | –
54 | EGLLNTYQELLGLSFEQMTDAHVW [NLN] | 2.41 ± 0.32 | 2.49 ± 0.38 | – | –
55 | EGQARCLAHLGRHMEALEIAANLE [C8orf76] | 3.6 ± 0.42 | 3.74 ± 0.39 | – | –
56 | EIFGPVTCVVPFDSEEEVIERANN [ALDH8A1] | 5.18 ± 0.17 | 5.17 ± 0.22 | – | –
57 | EIHSKTTAYSRLNETQPIDLSGLP [RNF180] | 3.6 ± 0.14 | 3.75 ± 0.25 | – | –
58 | EIVSIWILSFILAIPEAIGFVMVP [EDNRA] | 2.86 ± 0.18 | 3.03 ± 0.17 | – | –
59 | EKELVFDIDMTDYDDVRRCCSSAD [PRIM1] | 4.73 ± 0.27 | 4.7 ± 0.35 | – | –
60 | EKEYKTYKENFLKRFQLTKLPPYL [USP39] | 2.5 ± 0.17 | 2.93 ± 0.28 | – | –
61 | EKKESLGAAQEALSIQLQPKETQP [ZNF232] | 5.35 ± 0.35 | 5.5 ± 0.19 | – | –
62 | ELIDNLKEAQYIRTELVEQAFRAI [PCMTD2] | 2.54 ± 0.32 | 2.29 ± 0.44 | – | –
63 | ELIRNIQELLKRTIMQAVSQIRLN [TEKT4] | 3 ± 0.46 | 2.77 ± 0.53 | – | –
64 | ELKEKEATLCLEFLLQNDANPSIR [ANKRD44] | 3.19 ± 0.096 | 3.25 ± 0.31 | – | –
65 | ELQKIVQAGDKDLDGQLDFEEFVH [SLC25A25] | 3.93 ± 0.046 | 4.19 ± 0.21 | – | –
66 | ELSAIGSDTTPLPSWAALNSSTWG [SNX8] | 2.94 ± 0.36 | 2.75 ± 0.18 | – | –
67 | ELSEKNFQLNQDKMNFSTLRNIQG [POMP] | 2.69 ± 0.59 | 3.27 ± 0.44 | – | –
68 | EMRISESAASGARFPLDSAQDPDV [PCDHGC5] | 5.38 ± 0.21 | 5.35 ± 0.16 | – | –
69 | EMSLPEVQKDKYPEEFSLLKLQTK [SPATS1] | 4.29 ± 0.28 | 4.04 ± 0.34 | – | –

Row | Sequence | protein stability index [1] | protein stability index [2] | protein stability index (treatment: DMSO, c terminus: native) | protein stability index (treatment: MLN4924 1 uM, 8 h, c terminus: native)
70 | EPELQVGIDIMKTSFPGRGSIPEF [AASDHPPT] | 3.67 ± 0.22 | 3.61 ± 0.29 | – | –
71 | EPESKNAPHSQGEYDVYSTFQSHE [PPP2R2C] | 5.19 ± 0.15 | 5.19 ± 0.15 | – | –
72 | EPREFSSRNFGVRNQGNFSVVGTV [ZC2HC1C] | 3.06 ± 0.31 | 3.01 ± 0.24 | – | –
73 | EQILELLVLEQFLTILPTEIETWV [ZNF449] | 3.15 ± 0.38 | 2.73 ± 0.52 | – | –
74 | EQPRLEFLMRKCGWFVRELRVEFA [FBXO33] | 2.64 ± 0.34 | 2.12 ± 0.24 | – | –
75 | EQTYHAKLENARLSSEMNTSTVNS [LMNB1] | 4.88 ± 0.14 | 5.03 ± 0.19 | – | –
76 | ERNRMHGLNDALDNLRKVVPCYSK [NEUROD6] | 2.75 ± 0.47 | 3.02 ± 0.32 | – | –
77 | ERQVLPDPEVLEAVGDRQDGLREQ [PBXIP1] | 5.54 ± 0.26 | 5.64 ± 0.1 | – | –
78 | ERVDGRRLVYKFGKNSSGWKEEEV [ELF3] | 4.11 ± 0.37 | 4.39 ± 0.15 | – | –
79 | ERVEAFSDGVYAIVATLLILDICE [TMEM175] | 3.05 ± 0.15 | 3.15 ± 0.22 | – | –
80 | ERVVINISGLRFETQLKTLAQFPN [KCNA1] | 2.47 ± 0.29 | 2.32 ± 0.55 | – | –
81 | ESGPSAEKYSVATQLFIGGVTGWC [FUNDC2] | 2.14 ± 0.29 | 1.97 ± 0.38 | – | –
82 | ESITSAGRDDLESFQLEISGFLKE [FAM98B] | 3.9 ± 0.26 | 4.1 ± 0.28 | – | –
83 | ESKDQGKTLALARTMDIPRSVQNF [ALDH8A1] | 4.01 ± 0.15 | 4.18 ± 0.23 | – | –
84 | ESRRQQILREFEELHRRLDEEQQV [TRIM39] | 4.87 ± 0.23 | 4.8 ± 0.097 | – | –
85 | ESRYTSDYFISYGIEHAQCVPPSE [ETS1] | 3.22 ± 0.29 | 3.5 ± 0.53 | – | –
86 | ETGEAARDPSLRPARTVLVGSLSW | 3.06 ± 0.32 | 2.88 ± 0.27 | – | –
87 | ETGKLLWKVRYDTFIVSCKFSPDG [WDR88] | 2.55 ± 0.37 | 2.04 ± 0.26 | – | –
88 | ETNEEDKTLQEIYRKYRKLIESEL [FBXO39] | 3.02 ± 0.44 | 3.4 ± 0.34 | – | –
89 | EVEGVKNIMTQNVERILARGENLE [VAMP8] | 4.68 ± 0.15 | 4.46 ± 0.16 | – | –
